In the supplement of paper PMC9942255:

Tested on: Bacillus subtilis DB104 (SP-AmyQ fusion secretion)
Assay: AmyQ secretion efficiency, weighted average sort bin (1 = best secretion, 10 = worst) (bin number (weighted average, 1-10)); higher = lower secretion efficiency
Outline: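 Occupied alginate beads were sorted by large-particle flow cytometry into 10 equally populated bins according to green/red fluorescence ratio. Each bead (~65 nL) held fluorescein-starch and about 0.3 cells of a B. subtilis DB104 library expressing mature AmyQ fused to designed signal peptides from the amyE locus, and beads were grown about 13 h at room temperature and stained with nile red before sorting. Bin amplicons were Illumina-sequenced, and the secretion score is the read-frequency-weighted average bin number, normalised to beads per bin, excluding low-abundance sequences.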

| Sequence | AmyQ secretion efficiency |
| --- | --- |
| MLKKIALTLCPAIVGSLLFFTAPLSAHVS | 3.94 |
| MNFKKTVVSALSISASVSGVASAHEI | 5.11 |
| MRKKRVITCVMAASLTLGPAGYASAKED | 3.6 |
| MRKKTKNRLISSVLSTVVISSLLFPGAAGARKK | 2.52 |
| MKLSVKIRKVLTVAAAAMTAKMYATAKGN | 6.94 |
| MKVPKTMLLSTAAGLLTATSVSAHYV | 6.58 |
| MPIKKKCLAVTLVFGSMSFPTLTNSGGFKE | 5.38 |
| MNMSITYSLLALLAVVAFAFTDSSKAKAAEA | 2.51 |
| MPYLKRVLLLLVTGLFMSLFAVTATASMQTG | 1.29 |
| MQKKWRRRLIQFAVMLSVLSTFTYSASAVGV | 3.56 |
| MSGTTSIILFSTLALAAGMTAAAAGGAGTIHAQQP | 3.5 |
| MKKSQYFKRRKCFFVLFSVHPIAAAAADS | 9.07 |
| MPYLKRVRKLLVTGLFMSLFAVTATASAQTG | 1.73 |
| MIAYFGKCLLLVTIMFLGVLFVMQQANHG | 7.39 |
| MKRITINITIITMFIAAAVISLTGTAEAAEK | 2.69 |
| MLCVMMLLFSAIASFPVSSQAKDQ | 5.36 |
| MKKRLIGFLVLVPALIEDGITLIEANKK | 5.91 |
| MNLRKILLSSALSLGMLVSAAPVLDTSS | 6.16 |
| MKLKKRVSMFLVALLMCLLLFVSTPAKAVKT | 4.33 |
| MTKLKMLSMLTVMIASLFIFSSQALMVQY | 5.71 |
| MHLIRAAGAVCLAVVLIAGCRITSIFFNEDQHQAEGENT | 6.96 |
| MSMWMITIAMLILAGIALFVFISPLKSHKT | 7.42 |
| MLKKKWMVGLLAGCLAAGEDDEEDAFATEN | 5.44 |
| MKLAKRVSALTPSTTLAITKKAKEL | 6.57 |
| MSSGIIVAGLAVSAVVGSSMAAAPAEAKTI | 6.57 |
| MGKWIYVVLVLSIAGIGGFSVHAASS | 6.5 |

| Sequence | AmyQ secretion efficiency |
| --- | --- |
| MFNRLFRVCFLAALIMAFDDDNSVYAQKP | 2.33 |
| MPIKKKVMMCLAVTLVFGSMSFPTLTNSGFFKE | 4.32 |
| MLKKKWMVKKKRRCKAAGGFSYNAFATEN | 7.54 |
| MRKKLKWLSTLLGFIILLFLFKYQFSNNDS | 5.35 |
| MRKTIFAFLTGLMMFGTITAASASPR | 4.47 |
| MKRMCSICCAAVLLAGGAAQAEAV | 3.05 |
| MKRKRLFIFSAILTLSIFAPNETFAQTA | 1.57 |
| MKKGIIRFLLVSFVLFFALSTGITGVQHAPA | 5.62 |
| MRKKRVITCVMAASLTLGSLLPAGYCTAKED | 3.9 |
| MMGKGLLAGALTATVLFGTCAVDVPGIISPKTAEAASQ | 1.48 |
| MKLAKRVSALTPSTTLAITCKAKEL | 7.57 |
| MFNRLFRVCFLAALIMAFTLPNSVYFQKP | 7.24 |
| MRPVFPLILSAVLFLSCFFGARQTEASESKR | 2.54 |
| MKKLVLCVSILAVILRKKALTQLS | 7.41 |
| MKRFLIGAGVAAVILSGWTIADHQTHSQEM | 5.66 |
| MRNLTKTSLLLAGLCTAAQMVFVTHASGEES | 2.76 |
| MLKKIALTLCPAIVGSLLFFTAPAPVAVASFAAAASAHVS | 5.09 |
| MKWMCSICCAAVLLAGGAAQVEAV | 2.92 |
| MKRSISIFITCLLITLLTMGGMIASPTSAAGT | 2.97 |
| MRKKRVITCVMAASLTLGSLLRKRKKRASAKED | 6.48 |
| MKKRKRRNFKRQGTQYKGLALMISLVPADVLAKST | 7.46 |
| MKIRKQRGYTGLSFGMLISAVPALAAGT | 6.92 |
| MKRSINSIFITCLLITLLTMGGMIASPASAAGT | 1.88 |
| MKKLLAAGIIGLLTVEEESPSFAAEK | 6.63 |
| MGLGGKLSVAVAASFMSLSISLPGVQAAEG | 1.01 |
| MTMLRKIIGWILLLCIIASFIVTPLFAFTVIASGKEV | 7.88 |

| Sequence | AmyQ secretion efficiency |
| --- | --- |
| MKMKSGMEQAVSVLLLLSRLPASLTSE | 3.77 |
| MKRLLSTLLIGIMLLPKAPSAFAKQD | 2.61 |
| MRMLWRSLALCGLALTLAPCAQSAEP | 2.34 |
| MKKRLIAPMLLSAASLAFFAMSGSAQAARR | 6.96 |
| MKRMIVRMTKKRRIVCLAFSSFSASARAASE | 5.68 |
| MKRRRKPYTKKLALGAALTIAPLSFASAEEN | 6.27 |
| MSTKQVMLALTAAAGLGLTALHSAPAAKAAPL | 2.43 |
| MKKLLAAGIIGLLTVSIASPSFWAEK | 7.9 |
| MKLAKRVKRRKRKTTLAITAKAKEL | 7.36 |
| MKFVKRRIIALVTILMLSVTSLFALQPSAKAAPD | 2.11 |
| MKKTIMSFVAVAALSTTAFGAHASFKEI | 5.37 |
| MPYLKRVLLLLVTGLFMSLFAVTATDSAQTG | 6.72 |
| MKKRLIGFLVLVPALIMSGITLIEMNKK | 6.01 |
| MKNMSCKLVVSVTLFFSFLTIGPLAHGQNS | 2 |
| MKLWMRKTLVVLFTIVTFGLKKRPAALMADKP | 6.91 |
| MRMLWRMMISLALCGLALTLAPCAQAAEP | 1.79 |
| MKLKKRVSMFLVALTMCGGLFVTPCKAVKT | 2.35 |
| MKKAFLVFLSVVLVTTVFLVKQQESVAQRKQL | 2.03 |
| MNLRKILLSSALSLGMLEEEDEEVLATSS | 4.45 |
| MNKFLKSNFRFLLAAALGISLLASSNFCKASND | 1.73 |
| MKRKKKRLCVMMLLFSAIASFPVSAQAKDQ | 3.18 |
| MGMKKKLSLGVASAAGGTWAAFN | 8.23 |
| MKSKGSIMACLILFSFTITTFINTETPSAFSN | 5.71 |
| MFNRLFRVCFLAALIMAFTLPNSTYAQKP | 2.43 |
| MLKKKWMVGLLAGCLAAGGFSYNAFITEN | 6.43 |
| MHLIRAAGAVCLAVVLIAGCAFNEDQHQAEGENT | 5.56 |

| Sequence | AmyQ secretion efficiency |
| --- | --- |
| MLGSTSFVSSLFISSAVLLSILLPSGQAHAQSA | 2.1 |
| MKKKQVMLALTAAAGLGLTALHDAPAAKAAPL | 2.66 |
| MRKNRILALFVLSLGLLSFMVTPTSAASK | 2 |
| MKRKLLSSLAISALSLGLLVSAPTALFAAES | 2.49 |
| MGMKRVITCVMAASLTLGSLLPAGYATAKED | 6.01 |
| MKKVLMAFIICLSLILSVLAAPPSGMKAESV | 1.84 |
| MLKRTSFVSSLFISSAVLLSILLPSGQGHAQSA | 1.31 |
| MKIRKILLSSALSFGMLISAVPALFAGT | 5.97 |
| MKRIRIPMTLALGAALTIAPLDEDASAEEN | 3.3 |
| MKIRKILLSSALSFGMLKKRRKKALAAGT | 6.86 |
| MKRIRIPMTLALGAALTIAPLTVATASFASAEEN | 4.63 |
| MKKQIITATTAVVLGSTLFAGACSAQSI | 2.49 |
| MKKRLIAPMLLSAASLAFFAMSGSAQVAAY | 5.79 |
| MMVCMKSIVRFLVSLIIGTFVISVPFMANAQSD | 2.06 |
| MKVPKTMLLSTAAGLLLSLTATSVSAHYK | 5.14 |
| MKVLLSALLLLLFAFEPSASMKKL | 6.8 |
| MKRKLLSSLAISALSLGLLVSGPTTSFAAES | 3.9 |
| MIAYFGKCLLLVTIMFLGVLFGMSQANHG | 4.69 |
| MKKAAAVLLSLGLVFGFSYGAGHVAEAAED | 3.87 |
| MKKKQVMLALTAAAGLGLTALHPGPSAKAAPL | 1.84 |
| MKKVLMAFIICLSLILSVLAAPPSGAKTESV | 5.06 |
| MFGMSTISLLIIFLLASAVLAKPIEAHTV | 2.54 |
| MKSKGSIMACLILFSFTITTFINTETHSAFSN | 7.73 |
| MKKLAAGLTASAIVGTTLVVTPAEAATI | 2.27 |
| MKKRFSLIMMFILLFMLMSPAFAAEK | 3.79 |
| MKTLRTLCVLMILSGVIFFGLKYDAKDI | 5.31 |

| Sequence | AmyQ secretion efficiency |
| --- | --- |
| MRKKCSKCKWSTTSLLSCLSGKSAYAATS | 7.94 |
| MHLIRARRRVCLAVVLIAGCRFNEDQHQAEGENT | 6.03 |
| MLTKRLLTIYIMLLGLIRRKPGAAQAEEK | 7.69 |
| MKLKSKLLLSCLALSTVFVATTIVNAPTH | 5.07 |
| MKKLIMALVILGALRKRYISADSS | 7.22 |
| MKKKQVMLALTAAAGLGLTALHSAPAEKAAPL | 6.32 |
| MTIFLMAVFVIMISFLIATVNVNTAHAAID | 6.34 |
| MKKLLAAGIIGLLTVQTDQPSFAAEK | 4.21 |
| MKRLLSTLLIGIMLLTFAPSMFAKQD | 2.35 |
| MKRFSTAYKQQRQQCSAAVFLIGAPSRALGAEV | 7.51 |
| MLKKIALTLCPAIVGSLLFFTAPDSAHVS | 6.1 |
| MTKRGIQAFAGGIYLTDEDQAAAV | 7.17 |
| MPYLKRVLLLLVTGLFMSLFAVTATPSAQTG | 4.75 |
| MHLIRAAGAVCLAVVLIAGCRFNEDQHQWEGENT | 5.73 |
| MKLKSKLLLSCLALSTVFVATTIANCPTH | 7.55 |
| MKKLIMMTGLLFGLTSPAFAAEK | 2.43 |
| MKKGIIRFLLVSFVLFFALLAFVVISFFSTGITGVQAAPA | 2.07 |
| MRKTIFAFLTGLMMFGTITACSASPD | 5.81 |
| MPYLKRVLLLLVTGLFMSLFAVTATCSAQTG | 1.27 |
| MKRMIVRMTLPLLIVCLAFSDFSASARAASE | 2.61 |
| MKRFILVLSFLSIIVAYPIQTNASPE | 2.06 |
| MKSKWMSGLLLVAVGFSFTQVMTSFFTPASPVHAGET | 6.76 |
| MSRIRIPMTLALGAALTIAPLSFASAEEN | 3.2 |
